A short description of this series: protein stability index of a GFP-peptide fusion (yeast GPS) (PSI 1-4); higher = more stable; sorted into four equal gates, so the index is relative within each strain. Summed up: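 The protein stability index of a peptide was calculated by multiplying its read frequency in each gate by that gate's number and adding the products. The peptides were tiled 17-residue stretches of yeast proteins, fused downstream of GFP on a Cherry-expressing plasmid and carried in yeast as a pooled library. Mid-log cultures in leucine-free medium were sorted into four equal gates by GFP/Cherry ratio, and each gate's plasmids were PCR-amplified and Illumina-sequenced.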

± gives the uncertainty stated by the source.

TKKLIQKTVFDELCKLV [SRP54]: the protein stability index came to 1.1 ± 0.11 (doa10∆), 1.51 ± 0.096 (pdr5∆), 1.25 ± 0.18 (san1∆) and 1.11 ± 0.095 (ubr1∆).
Consider GQLGLDDNDVPGPLPDT [YLR018C/POM34], for which the protein stability index is, setting by setting: (doa10∆) 3.27 ± 0.2; (pdr5∆) 2.94 ± 0.14; (san1∆) 2.37 ± 0.23.
GLTTVWLLSALGNSIVK [REC8]: the protein stability index was 1.61 ± 0.085 (doa10∆), 2.31 ± 0.075 (pdr5∆), 2.13 ± 0.14 (san1∆) and 1.77 ± 0.12 (ubr1∆).
As for LRNVFLGKCSRITDASL [GRR1], the protein stability index was determined as 2.94 ± 0.066 (doa10∆), 2.81 ± 0.097 (pdr5∆), 2.68 ± 0.07 (san1∆) and 2.82 ± 0.05 (ubr1∆).
The corresponding values for SLTYKKISLRDICLKLN [RPN3] are 2.38 ± 0.05, 2.17 ± 0.047, 1.44 ± 0.13 and 2.05 ± 0.04.
In the same order, the values of SEILIISSLMFDEEFDP [IRR1] are 2.5 ± 0.094, 2.63 ± 0.095, 2.67 ± 0.098 and 2.97 ± 0.07.
In the same order, the values of PSAEIREAYIENFAKGE [SWP82] are 2.39 ± 0.073, 2.63 ± 0.084, 2.58 ± 0.1 and 2.4 ± 0.064.
In the case of RDIFQEDEENSDVLLFQ [RGR1], the protein stability index came out at 3.37 ± 0.061 (doa10∆), 3.46 ± 0.071 (pdr5∆), 3.4 ± 0.039 (san1∆) and 3.23 ± 0.035 (ubr1∆).
The corresponding values for ASSLRFGNSLSNTVNAN [YDL088C/ASM4] are 2.81 ± 0.068, 2.78 ± 0.075, 2.65 ± 0.059 and 2.89 ± 0.074.
The corresponding values for VTWRTFTGDFLRRVEER [FAS1] are 2.79 ± 0.12, 1.78 ± 0.096, 1.96 ± 0.12 and 1.24 ± 0.15.
The corresponding values for RENVFFQSQQRRKDTSM [RPB9] are 3.07 ± 0.083, 3.4 ± 0.11, 3.34 ± 0.065 and 2.75 ± 0.15.
As to KDILNLASEVGDPALVY [ECM29], the protein stability index was found to be 2.87 ± 0.09 (doa10∆), 3.15 ± 0.12 (pdr5∆), 3.39 ± 0.066 (san1∆) and 2.87 ± 0.076 (ubr1∆).
The corresponding values for LSESLTKFFDDAKSTPL [RPN9] are 3.01 ± 0.07, 3.26 ± 0.069, 3.18 ± 0.055 and 3.12 ± 0.068.
For the sequence RTIANQDHFHRLNYLYQ [RPR2], the protein stability index runs as follows: (doa10∆) 2.64 ± 0.062; (pdr5∆) 2.88 ± 0.043; (san1∆) 2.73 ± 0.034; (ubr1∆) 2.58 ± 0.026.
In the same order, the values of EKPDNSNHNNLNLNNSE [SNF2] are 3.02 ± 0.043, 3.19 ± 0.051, 3.15 ± 0.036 and 3.17 ± 0.034.
With KDLTLCRYSCLALERMV [YCS4], the protein stability index is, setting by setting: (doa10∆) 2.58 ± 0.23; (pdr5∆) 2.36 ± 0.2; (ubr1∆) 1.79 ± 0.13.
For the sequence NQIPVTEHSKVTRFDEK [SRB6], the protein stability index stood at 2.28 ± 0.05 (doa10∆), 3.02 ± 0.049 (pdr5∆), 2.86 ± 0.052 (san1∆) and 2.87 ± 0.048 (ubr1∆).
The corresponding values for AMLINLILRDFLNNGEV [RPN3] are 2.67 ± 0.086, 2.56 ± 0.076, 2.59 ± 0.066 and 2.84 ± 0.076.
In the same order, the values of TQVRVEFLEDTSRTIVR [RPS28A] are 3.37 ± 0.24, 3.06 ± 0.13, 2.91 ± 0.095 and 3.3 ± 0.14.
The corresponding values for DSTVVYPLPKFPTTSHE [MED8] are 2.75 ± 0.048, 3.06 ± 0.051, 2.92 ± 0.046 and 3.02 ± 0.054.
PIAAPKKPRKPRQTKKA [PGD1]: the protein stability index stood at 2.64 ± 0.11 (doa10∆), 3.18 ± 0.092 (pdr5∆), 2.56 ± 0.082 (san1∆) and 3.09 ± 0.097 (ubr1∆).
Consider GIRGKLVTIEGALIHKA [SMC1], for which the protein stability index (doa10∆) came out at 3.33 ± 0.2, the protein stability index (pdr5∆) amounted to 2.95 ± 0.17 and the protein stability index (san1∆) came to 2.88 ± 0.13.
For IQKESTLHLVLRLRGGI [RPL40A], the protein stability index is, setting by setting: (doa10∆) 2.48 ± 0.11; (pdr5∆) 2.6 ± 0.071; (san1∆) 2.35 ± 0.1; (ubr1∆) 2.54 ± 0.058.
In turn, LDPALLRPGRIDRKVEF [RPT1] yielded a protein stability index (pdr5∆) of 3.07 ± 0.28 and a protein stability index (san1∆) of 3.34 ± 0.068.
With NYDTCGGESAYFFQLQI [RPC11], the protein stability index is, setting by setting: (doa10∆) 2.72 ± 0.2; (pdr5∆) 2.75 ± 0.15; (san1∆) 2.04 ± 0.14; (ubr1∆) 2.94 ± 0.14.

The values above are taken from the supplement of paper PMC9732359.
